Results taken from patent publication US20240141042A1 (INNATE PHARMA, published 2024).

Legend:
NKp46 mutant 19 = target: T1, NKp46 mutant 19 (human, UniProt O76036 22-304); experiment: flow cytometry on HEK293T cells transfected with NKp46 mutant 19 (I135A, S136A), antibody titrated 0.001-1 ug/ml
T1 construct: Expressed in transfected HEK293T cells
T1 chain: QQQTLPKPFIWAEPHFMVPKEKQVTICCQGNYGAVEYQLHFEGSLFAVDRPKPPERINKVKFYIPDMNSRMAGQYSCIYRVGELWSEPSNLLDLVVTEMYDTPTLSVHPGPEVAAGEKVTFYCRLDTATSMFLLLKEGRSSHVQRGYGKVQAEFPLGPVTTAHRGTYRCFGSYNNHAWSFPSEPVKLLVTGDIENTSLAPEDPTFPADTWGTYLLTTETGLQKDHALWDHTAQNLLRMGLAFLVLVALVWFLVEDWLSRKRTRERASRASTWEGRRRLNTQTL

NKp46 mutant Supp8 = target: T2, NKp46 mutant Supp8 (human, UniProt O76036 22-304); experiment: flow cytometry on HEK293T cells transfected with NKp46 mutant Supp8 (P132A, E133A; printed 'Mutant S8'), antibody titrated 0.001-1 ug/ml
T2 construct: Expressed in transfected HEK293T cells; also called supplementary mutant Supp8
T2 chain: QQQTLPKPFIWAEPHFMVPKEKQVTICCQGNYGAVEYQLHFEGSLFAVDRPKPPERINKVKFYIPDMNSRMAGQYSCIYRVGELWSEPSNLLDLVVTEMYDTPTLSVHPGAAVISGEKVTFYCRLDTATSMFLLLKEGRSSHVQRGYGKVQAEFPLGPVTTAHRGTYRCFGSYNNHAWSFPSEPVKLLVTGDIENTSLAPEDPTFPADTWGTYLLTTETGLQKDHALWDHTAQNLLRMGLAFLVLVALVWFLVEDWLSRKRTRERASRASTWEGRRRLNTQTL

[1] = target: T3, human NKp46 expressed at the cell surface (human, UniProt O76036 22-304); experiment: flow cytometry on HEK293T cells transfected with wild-type NKp46, antibody titrated 0.001-1 ug/ml
T3 construct: Wild-type NKp46 on cells (transfected cell lines or NK cells); also called cell line expressing the human NKp46 construct; NKp46 cell line

NKp46 mutant 2 = target: T4, NKp46 mutant 2 (human, UniProt O76036 22-304); experiment: flow cytometry on HEK293T cells transfected with NKp46 mutant 2 (K41S, E42A, E119A), antibody titrated 0.001-1 ug/ml
T4 construct: Expressed in transfected HEK293T cells
T4 chain: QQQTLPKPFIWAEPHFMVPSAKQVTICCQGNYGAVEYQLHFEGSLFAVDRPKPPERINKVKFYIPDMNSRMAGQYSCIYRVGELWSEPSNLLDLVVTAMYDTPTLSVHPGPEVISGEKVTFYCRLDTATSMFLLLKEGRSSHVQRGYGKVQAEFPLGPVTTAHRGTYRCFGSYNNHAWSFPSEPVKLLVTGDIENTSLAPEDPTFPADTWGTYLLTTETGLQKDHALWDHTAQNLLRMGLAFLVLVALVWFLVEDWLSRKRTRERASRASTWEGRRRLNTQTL
Procedure: All the anti-NKp46 antibodies were tested for their binding to each mutant by flow cytometry. A first experiment was performed to determine antibodies that lose their binding to one or several mutants at one concentration (10 μg/ml).

NKp46 mutant Supp7 = target: T5, NKp46 mutant Supp7 (human, UniProt O76036 22-304); experiment: flow cytometry on HEK293T cells transfected with NKp46 mutant Supp7 (Y121A, Y194A; printed 'Mutant S7'), antibody titrated 0.001-1 ug/ml
T5 construct: Expressed in transfected HEK293T cells; also called supplementary mutant Supp7
T5 chain: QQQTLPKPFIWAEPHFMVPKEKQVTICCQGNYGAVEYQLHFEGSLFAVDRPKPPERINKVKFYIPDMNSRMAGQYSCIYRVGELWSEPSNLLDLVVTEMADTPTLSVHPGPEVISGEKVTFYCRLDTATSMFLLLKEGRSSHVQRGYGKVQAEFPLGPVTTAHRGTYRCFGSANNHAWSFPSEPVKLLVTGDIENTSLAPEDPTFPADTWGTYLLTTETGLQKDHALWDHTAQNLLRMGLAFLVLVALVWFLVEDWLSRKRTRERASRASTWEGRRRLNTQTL

human FcRn (Example 10) = target: T6, human FcRn (Example 10) (human, UniProt P55899 24-297; P61769 21-119, limits assumed); experiment: SPR, FcRn immobilized on CM5, Steady State
T6 construct: Construct not described; Beta-2-microglobulin is not mentioned; also called recombinant FcRn proteins

[2] = target: T7, Human NKp46 recombinant proteins (human, UniProt O76036 22-258); experiment: SPR, bispecific captured on Protein-A chip, human NKp46 injected, 1:1 kinetic model
T7 construct: also called recombinant human NKp46 proteins
Procedure: SPR measurements were performed on a Biacore T100 apparatus (Biacore GE Healthcare) at 25° C. In all Biacore experiments HBS-EP+(Biacore GE Healthcare) and NaOH 10 mM served as running buffer and regeneration buffer respectively. Sensorgrams were analyzed with Biacore T100 Evaluation software. Protein-A was purchase from (GE Healthcare). Human NKp46 recombinant proteins were cloned, produced and purified at Innate Pharma.
Protein-A proteins were immobilized covalently to carboxyl groups in the dextran layer on a Sensor Chip CM5. The chip surface was activated with EDC/NHS (N-ethyl-N′-(3-dimethylaminopropyl) carbodiimidehydrochloride and N-hydroxysuccinimide (Biacore GE Healthcare)). Protein-A was diluted to 10 μg/ml in coupling buffer (10 mM acetate, pH 5.6) and injected until the appropriate immobilization level was reached (i.e. 2000 RU). Deactivation of the remaining activated groups was performed using 100 mM ethanolamine pH 8 (Biacore GE Healthcare).
Monovalent affinity study was done following a regular Capture-Kinetic protocol recommended by the manufacturer (Biacore GE Healthcare kinetic wizard). Seven serial dilutions of human NKp46 recombinant proteins, ranging from 6.25 to 400 nM were sequentially injected over the captured Bi-Specific antibodies and allowed to dissociate for 10 min before regeneration. The entire sensorgram sets were fitted using the 1:1 kinetic binding model.

T6 sequence (P55899 24-297 limits assumed, form in doubt, chain 1 of 2): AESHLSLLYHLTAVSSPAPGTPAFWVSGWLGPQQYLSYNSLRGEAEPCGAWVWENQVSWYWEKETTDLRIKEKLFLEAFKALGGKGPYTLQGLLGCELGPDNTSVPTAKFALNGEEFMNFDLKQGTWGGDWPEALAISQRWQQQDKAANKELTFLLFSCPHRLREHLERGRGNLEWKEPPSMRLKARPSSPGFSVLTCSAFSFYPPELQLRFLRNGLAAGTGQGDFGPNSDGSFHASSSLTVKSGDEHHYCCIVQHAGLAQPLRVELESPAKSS
T6 sequence (P61769 21-119 limits assumed, form in doubt, chain 2 of 2): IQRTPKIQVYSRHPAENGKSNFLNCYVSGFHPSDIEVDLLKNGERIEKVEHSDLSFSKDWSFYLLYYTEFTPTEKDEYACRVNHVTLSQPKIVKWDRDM

B1: NKp46-1 (antibody, V domains shown)
VH: QVQLQQSGPELVKPGASVKMSCKASGYTFTDYVINWGKQRSGQGLEWIGEIYPGSGTNYYNEKFKAKATLTADKSSNIAYMQLSSLTSEDSAVYFCARRGRYGLYAMDYWGQGTSVTVSS
VL: DIQMTQTTSSLSASLGDRVTISCRASQDISNYLNWYQQKPDGTVKLLIYYTSRLHSGVPSRFSGSGSGTDYSLTINNLEQEDIATYFCQQGNTRPWTFGGGTKLEIK
notes: also called Antibody NKp46-1; parental human IgG1 chimeric antibody NKp46-1
NKp46 mutant 19
  binding result: binds
NKp46 mutant Supp8
  binding result: binds

B2: NKp46-2 (antibody, human IgG1, V domains shown)
VH: EVQLQESGPGLVKPSQSLSLTCTVTGYSITSDYAWNWIRQFPGNKLEWMGYITYSGSTSYNPSLESRISITRDTSTNQFFLQLNSVTTEDTATYYCARGGYYGSSWGVFAYWGQGTLVTVSA
VL: DIQMTQSPASLSASVGETVTITCRVSENIYSYLAWYQQKQGKSPQLLVYNAKTLAEGVPSRFSGSGSGTQFSLKINSLQPEDFGSYYCQHHYGTPWTFGGGTKLEIK
notes: also called parental human IgG1 chimeric antibody NKp46-2
[1]
  binding result: binds
NKp46 mutant 19
  binding result: binds
NKp46 mutant 2
  binding result: binds
NKp46 mutant Supp7
  binding result: binds
NKp46 mutant Supp8
  binding result: binds

B3: NKp46-9 (antibody, V domains shown)
VH: DVQLQESGPGLVKPSQSLSLTCTVTGYSITSDYAWNWIRQFPGNKLEWMGYITYSGSTNYNPSLKSRISITRDTSKNQFFLQLNSVTTEDTATYYCARCWDYALYAMDCWGQGTSVTVSS
VL: DIQMTQSPASLSASVGETVTITCRTSENIYSYLAWCQQKQGKSPQLLVYNAKTLAEGVPSRFSGSGSGTHFSLKINSLQPEDFGIYYCQHHYDTPLTFGAGTKLELK
notes: not in the list MOLECULES as an antibody; also called antibody NKp46-9; monoclonal antibody NKp46-9
NKp46 mutant 19
  binding result: binds
NKp46 mutant Supp8
  binding result: binds

B4: CD19-F9A-NKp46-3 (bispecific antibody, human IgG1, kappa)
chain 1: not shown
chain 2: not shown
chain 3: DIVMTQSPATLSVTPGDRVSLSCRASQSISDYLHWYQQKSHESPRLLIKYASQSISGIPSRFSGSGSGSDFTLSINSVEPEDVGVYYCQNGHSFPLTFGAGTKLELKASTKGPSVFPLAPSSKSTSGGTAALGCLVKDYFPEPVTVSWNSGALTSGVHTFPAVLQSSGLYSLSSVVTVPSSSLGTQTYICNVNHKPSNTKVDKRVEPKSCDKTH
notes: Heterotrimer with monomeric Fc (tandem CH3, N297S) and wild-type hinge cysteines
Human FcRn (Example 10)
  Kd: 858 nM
[2]
  Kd: 32 nM
  koff: 0.00669 s⁻¹
  kon: 207000 M⁻¹ s⁻¹

B5: CD19-F11-NKp46-3 (bispecific antibody)
chain 1: DIQLTQSPASLAVSLGQRATISCKASQSVDYDGDSYLNWYQQIPGQPPKLLIYDASNLVSGIPPRFSGSGSGTDFTLNIHPVEKVDAATYHCQQSTEDPWTFGGGTKLEIKGGGGSGGGGSGGGGSQVQLQQSGAELVRPGSSVKISCKASGYAFSSYWMNWVKQRPGQGLEWIGQIWPGDGDTNYNGKFKGKATLTADESSSTAYMQLSSLASEDSAVYFCARRETTTVGRYYYAMDYWGQGTTVTVSSGGGSSAPELLGGPSVFLFPPKPKDTLMISRTPEVTCVVVDVSHEDPEVKFNWYVDGVEVHNAKTKPREEQYSSTYRVVSVLTVLHQDWLNGKEYKCKVSNKALPAPIEKTISKAKGQPREPQVYTLPPSREEMTKNQVSLTCLVKGFYPSDIAVEWESNGQPENNYKTTPPVLDSDGSFFLYSKLTVDKSRWQQGNVFSCSVMHEALHNHYTQKSLSLSPGGGGGSGGGGSGGGGSGQPREPQVYTLPPSREEMTKNQVSLTCLVKGFYPSDIAVEWESNGQPENNYKTTPPVLDSDGSFFLYSKLTVDKSRWQQGNVFSCSVMHEALHNHYTQKSLSLSPGSTGSEVQLQQSGPELVKPGASVKISCKTSGYTFTEYTMHWVKQSHGKSLEWIGGISPNIGGTSYNQKFKGKATLTVDKSSSTAYMELRSLTSEDSAVYYCARRGGSFDYWGQGTTLTVSSRTVAAPSVFIFPPSDEQLKSGTASVVCLLNNFYPREAKVQWKVDNALQSGNSQESVTEQDSKDSTYSLSSTLTLSKADYEKHKVYACEVTHQGLSSPVTKSFNRGEC
chain 2: DIVMTQSPATLSVTPGDRVSLSCRASQSISDYLHWYQQKSHESPRLLIKYASQSISGIPSRFSGSGSGSDFTLSINSVEPEDVGVYYCQNGHSFPLTFGAGTKLELKASTKGPSVFPLAPSSKSTSGGTAALGCLVKDYFPEPVTVSWNSGALTSGVHTFPAVLQSSGLYSLSSVVTVPSSSLGTQTYICNVNHKPSNTKVDKRVEPKSCDKTH
notes: Heterodimer; also called CD19-F11A-NKp46-3
Human FcRn (Example 10)
  Kd: 596 nM
[2]
  Kd: 30 nM
  koff: 0.0104 s⁻¹
  kon: 339000 M⁻¹ s⁻¹

B6: CD19-F4-NKp46-3 (bispecific antibody)
chain: DIQLTQSPASLAVSLGQRATISCKASQSVDYDGDSYLNWYQQIPGQPPKLLIYDASNLVSGIPPRFSGSGSGTDFTLNIHPVEKVDAATYHCQQSTEDPWTFGGGTKLEIKGGGGSGGGGSGGGGSQVQLQQSGAELVRPGSSVKISCKASGYAFSSYWMNWVKQRPGQGLEWIGQIWPGDGDTNYNGKFKGKATLTADESSSTAYMQLSSLASEDSAVYFCARRETTTVGRYYYAMDYWGQGTTVTVSSGGGSSAPELLGGPSVFLFPPKPKDTLMISRTPEVTCVVVDVSHEDPEVKFNWYVDGVEVHNAKTKPREEQYSSTYRVVSVLTVLHQDWLNGKEYKCKVSNKALPAPIEKTISKAKGQPREPQVYTLPPSREEMTKNQVSLTCLVKGFYPSDIAVEWESNGQPENNYKTTPPVLDSDGSFFLYSKLTVDKSRWQQGNVFSCSVMHEALHNHYTQKSLSLSPGGGGGSGGGGSGGGGSGQPREPQVYTLPPSREEMTKNQVSLTCLVKGFYPSDIAVEWESNGQPENNYKTTPPVLDSDGSFFLYSKLTVDKSRWQQGNVFSCSVMHEALHNHYTQKSLSLSPGSTGSEVQLQQSGPELVKPGASVKISCKTSGYTFTEYTMHWVKQSHGKSLEWIGGISPNIGGTSYNQKFKGKATLTVDKSSSTAYMELRSLTSEDSAVYYCARRGGSFDYWGQGTTLTVSSVEGGSGGSGGSGGSGGVDDIVMTQSPATLSVTPGDRVSLSCRASQSISDYLHWYQQKSHESPRLLIKYASQSISGIPSRFSGSGSGSDFTLSINSVEPEDVGVYYCQNGHSFPLTFGAGTKLELK
notes: Single chain with tandem CH3 and N297S
Human FcRn (Example 10)
  Kd: 712 nM
[2]
  Kd: 30 nM
  koff: 0.011 s⁻¹
  kon: 368000 M⁻¹ s⁻¹
